The target in experiment [1] is European Hornbeam (Car b 1 isoform 2, MyBiosource, Cat# MBS 1043940) (European Hornbeam) (UniProt P38950). The experiment is described as follows: SPR Biacore 4000, mAb captured by anti-human Fc, 25 C. (SPR reads the build-up and loss of mass on a sensor chip optically.)
Experiment [2] concerns the target Hazel (Cor A 1, MyBiosource, Cat# MBS5304600) (Hazel) (UniProt Q08407). The description is as above.
The target of experiment [3] is European Hornbeam (Car b 1 isoform 1A & 1B, MyBiosource, Cat#MBS 1200018) (European Hornbeam) (UniProt P38949). The experiment is described as above.
Experiment [4] addresses Apple (Mal d 1, MyBiosource, Cat# MBS 1224919) (Apple) (UniProt P43211). Described as above.
Experiment [5] addresses Celery (Api g 1, MyBiosource, Cat# MBS 1171376) (Celery) (UniProt P49372). The description is as above.
Experiment [6] has as its target Alder (Aln g 1, MyBiosource, Cat# MBS 1041484) (Alder) (UniProt P38948). The experiment is described as above.
Experiment [7] deals with natural Bet v 1 (Indoor Biotechnologies, # NA-BV1-1) (Betula verrucosa (Betula pendula)) (UniProt P15494). Kind of experiment: dose-response blocking ELISA, captured IgE of donor 23939-MH, at 1 ug/mL antibody. Background: ELISA stands for enzyme-linked immunosorbent assay.
The target is the same in experiment [8]. The experiment is described as follows: dose-response blocking ELISA, captured IgE of donor 25340-RR, at 1 ug/mL antibody.
The target is the same in experiment [9]. Kind of experiment: blocking ELISA, captured IgE of donor 22627-MN, 1 ug/mL antibody.
Experiment [10] shares this target. The experiment is described as follows: dose-response blocking ELISA, captured IgE of donor 25609-MS, at 1 ug/mL antibody.
For experiment [11] the target is unchanged. The experiment is described as follows: blocking ELISA, captured IgE of donor 29718-MW, 1 ug/mL antibody.
Experiment [12] has the same target. The experiment is described as follows: blocking ELISA, captured IgE of donor 23658-MD, 1 ug/mL antibody.
For experiment [13] the target is unchanged. The experiment is described as follows: blocking ELISA, captured IgE of donor 25609-MS, 1 ug/mL antibody.
Experiment [14] has the same target. Kind of experiment: blocking ELISA, captured IgE of donor 26532-CC, 1 ug/mL antibody.
Experiment [15] has the same target. Kind of experiment: blocking ELISA, captured IgE of donor 25299-RJ, 1 ug/mL antibody.
For experiment [16] the target is unchanged. The experiment is described as follows: blocking ELISA, captured IgE of donor 23939-MH, 1 ug/mL antibody.
Experiment [17] shares this target. The experiment is described as follows: blocking ELISA, captured IgE of donor 25340-RR, 1 ug/mL antibody.
The target is the same in experiment [18]. The experiment is described as follows: blocking ELISA, captured IgE of donor 25414-CW, 1 ug/mL antibody.
For experiment [19] the target is unchanged. Kind of experiment: blocking ELISA, captured IgE of donor 23035-BL, 1 ug/mL antibody.

Sequence of European Hornbeam (Car b 1 isoform 2, MyBiosource, Cat# MBS 1043940) (European Hornbeam) (P38950 2-160 limits assumed): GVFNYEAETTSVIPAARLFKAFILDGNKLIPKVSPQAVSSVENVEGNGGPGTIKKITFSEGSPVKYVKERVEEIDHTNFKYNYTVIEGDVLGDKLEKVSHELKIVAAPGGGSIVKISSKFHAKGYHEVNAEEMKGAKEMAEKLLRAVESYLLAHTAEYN
Sequence of Hazel (Cor A 1, MyBiosource, Cat# MBS5304600) (Hazel) (Q08407 2-160 limits assumed): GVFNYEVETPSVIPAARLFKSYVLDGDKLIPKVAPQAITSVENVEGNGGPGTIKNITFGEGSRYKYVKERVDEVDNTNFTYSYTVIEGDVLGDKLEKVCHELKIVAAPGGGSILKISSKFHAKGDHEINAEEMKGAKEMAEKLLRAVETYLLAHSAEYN
Sequence of Celery (Api g 1, MyBiosource, Cat# MBS 1171376) (Celery) (P49372 whole entry): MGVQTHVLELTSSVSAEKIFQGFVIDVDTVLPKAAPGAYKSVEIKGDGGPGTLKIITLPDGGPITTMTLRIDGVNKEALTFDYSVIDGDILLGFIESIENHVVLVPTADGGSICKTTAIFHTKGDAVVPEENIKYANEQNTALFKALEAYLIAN
Sequence of European Hornbeam (Car b 1 isoform 1A & 1B, MyBiosource, Cat#MBS 1200018) (European Hornbeam) (P38949 2-160): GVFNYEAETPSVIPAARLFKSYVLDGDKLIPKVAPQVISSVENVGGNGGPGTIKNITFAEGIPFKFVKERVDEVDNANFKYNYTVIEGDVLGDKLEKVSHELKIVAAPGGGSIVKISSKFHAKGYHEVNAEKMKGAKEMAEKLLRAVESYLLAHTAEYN
Sequence of Alder (Aln g 1, MyBiosource, Cat# MBS 1041484) (Alder) (P38948 2-160 limits assumed): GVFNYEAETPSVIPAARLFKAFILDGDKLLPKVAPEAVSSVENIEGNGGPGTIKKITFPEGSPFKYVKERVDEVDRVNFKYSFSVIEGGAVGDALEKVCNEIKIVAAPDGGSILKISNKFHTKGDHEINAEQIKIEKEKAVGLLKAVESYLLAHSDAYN
Sequence of Apple (Mal d 1, MyBiosource, Cat# MBS 1224919) (Apple) (P43211 2-159 limits assumed): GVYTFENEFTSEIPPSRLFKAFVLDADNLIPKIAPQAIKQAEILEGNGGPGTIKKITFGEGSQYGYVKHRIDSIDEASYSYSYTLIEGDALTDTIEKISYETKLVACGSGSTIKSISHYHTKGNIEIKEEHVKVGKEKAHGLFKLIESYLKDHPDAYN

With Isotype Control (antibody), the 100 nM Analyte Bound (RU) is 0 RU in experiment [1]; 1 RU in [2]; 0 RU in experiment [3]; 0 RU in experiment [4]; -1 RU in experiment [5]; 0 RU in [6].

For the substance Isotype control (antibody), the Percent Blocking in experiment [7] is 16.8%; in experiment [8] it was 10.6%; in experiment [9], -3%; in experiment [10] it was 8.8%; in experiment [11], -2%; in [12], -3%. Moreover, the Percent Blocking in [13] is -2%; in [14], -4%; in experiment [15], -4%; in [16], -2%; in [17], -1%; in experiment [18] it was -4%. For the same substance, the Percent Blocking in [19] was -5%.

Source of the values: patent US20180346555A1.
